Substrate: Nc1ncnc2c1ncn2[C@@H]1O[C@H](COP(=O)(O)OP(=O)(O)OP(=O)(O)O)[C@@H](O)[C@H]1O
Test: purified protein
Settings: microtubules; standard assay conditions; apparent Km from gliding velocity

B1: kinesin-II (wild type heterotrimer KLP-11/KLP-20/KAP-1) (Caenorhabditis elegans) (protein)
chain 1: MVEIMKKSSKQETVKVIVRCRPLSSQEIANNYSKIVHMRPQRGQIELKNPKEQDEPSKDFTFDAIYDENSTQSDLYEETFRDLVDSVLNGYNATIFAYGQTGTGKTHTMEGKSSDPEQRGVIYKCIDHIFEHMAASHNQEYLVRASYLEIYQEELRDLLEAESNKKLEIKERPDGGVYVKDLTSKLTRTVGEIHEVMIRGNGHRSVGRTNMNEHSSRSHAIFIITVECSRIGEDGESHITVGRLNLVDLAGSERQSKTGATGERFKEATKINLSLSALGNVISALVDAKSAHIPYRDSKLTRLLQDSLGGNSKTVMVACIGPASYNFEETLGTLRYANRAKNIKNQPKINEDPKDALLREFQEEIEMLREQLKQRKTRSRDGATQSFYDAERAKLEDDIEAIQKDDSLIKHEKDRLIREIQEKHDLLEKERIEQARVAERIANIQSRLIVGSEEDGRLESRTKEQHAQLEKKRRELAEQKRREREMVEALERQEEDTVDLKQTFSDLRTEVEAKTKKLKKMLIKLRQARNEIRDVSGAYSDERQDLDQTIAEVSKELKLKLLIVENFIPRDVSERIKERAEWNEDSFEWNVNAFQSTSSNSSTPLNNTIEVNEDGVFTRSSGADSGVSVSGGNGTPATSQFLDKRLVATPGCRRPMSMCERMLVETAREQFGAQRRPPISGSGSFVEATIPEETIRFCGENVVVFSALERFVPEVTDSDPSTFSNSMMMSARRPSIENLTIDASKVLVPILNQSTMILKNSKNGQARNDTMPPNGSMRRSQN
chain 2: MEGAEKVKVVVRCRPISTTEKLQGHKIAVTCNDEEKAVNIKSLSQEDPPRTFYFDAVFSPNTDQMTVYNVAARPIVENVLKGYNGTIFAYGQTGTGKTFTMAGDLEPVEMRGIIPNSFAHIFDHIAKCQHDTTFLVRVSYLEIYNEEIRDLLSKDHNGNLEIKERPDVGVYVRNLSNPTVENASKMQALMEFGSKNRKVGATAMNLESSRSHAMFTVTIESCRNGLVTQGKLQLVDLAGSERQSKTGAQGERLKEAAKINLSLSTLGNVISSLVDGKSTHIPYRNSKLTRLLQDSLGGNSKTVMIANVGPATYNYDETLSTLRYANRAKNIQNVAKINEDPKDAQLRKFQLEIEALRKILDEENPGDDENQEEAWEAKMQEREVEMEKKRKILEERVNSAVNDEETHRLVKEMMENEAELKKARSEHEKLRSKLEKIEKKLIVGGENLLEKVEEQAKLLEVNNKELEQSKFQEAHLRTQLEERTAVKVEIEERYSSLQEEAFVKSKKIKKVSNELKDARAELKDLEEDHQRQVEAMLDDIRQLRKELLLNIAIIDEYIPVEHVELIEKYVSWSEEHGDWQLKAIAYTGNNMRASAPPAKKEFSNNNQTVPMYYSYRADLGASTAEHRPRTSSKKHRASIRLQQLLT
B1 gave a Vmax of 15.6 µM/min.

— article PMC3787135
